Reference: IntAct's records for PubMed 11248247

B1: Twist-related protein 1 (Homo sapiens), Q15672 (parent)
chain: MMQDVSSSPVSPADDSLSNSEEEPDRQQPPSGKRGGRKRRSSRRSAGGGAGPGGAAGGGVGGGDEPGSPAQGKRGKKSAGCGGGGGAGGGGGSSSGGGSPQSYEELQTQRVMANVRERQRTQSLNEAFAALRKIIPTLPSDKLSKIQTLKLAARYIDFLYQVLQSDELDSKMASCSYVAHERLSYAFSVWRMEGAWSMSASH

Variants of: B1
Conditions: with TCF3, P15923-1
Chain of TCF3, P15923-1 (P15923 whole entry): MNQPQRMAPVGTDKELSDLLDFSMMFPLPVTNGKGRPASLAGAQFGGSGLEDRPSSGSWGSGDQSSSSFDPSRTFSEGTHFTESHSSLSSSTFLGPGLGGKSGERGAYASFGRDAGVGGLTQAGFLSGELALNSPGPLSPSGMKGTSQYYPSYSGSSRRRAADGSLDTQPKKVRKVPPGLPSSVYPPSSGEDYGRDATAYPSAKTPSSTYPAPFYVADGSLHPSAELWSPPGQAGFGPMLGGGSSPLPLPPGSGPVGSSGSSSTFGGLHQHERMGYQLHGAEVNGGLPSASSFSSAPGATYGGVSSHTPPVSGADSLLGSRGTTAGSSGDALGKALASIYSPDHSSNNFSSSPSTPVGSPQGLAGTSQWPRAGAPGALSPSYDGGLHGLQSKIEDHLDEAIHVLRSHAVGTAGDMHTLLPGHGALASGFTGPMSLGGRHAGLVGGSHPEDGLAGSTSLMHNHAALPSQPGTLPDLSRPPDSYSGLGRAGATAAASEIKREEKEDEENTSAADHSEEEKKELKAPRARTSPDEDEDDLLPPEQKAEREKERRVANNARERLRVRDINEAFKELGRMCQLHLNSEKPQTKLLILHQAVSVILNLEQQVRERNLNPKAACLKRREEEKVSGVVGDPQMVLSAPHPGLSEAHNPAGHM

| effect of a mutation on the interaction | Variant |
| --- | --- |
| decreasing interaction strength | MMQDVSSSPVSPADDSLSNSEEEPDRQQPPSGKRGGRKRRSSRRSAGGGAGPGGAAGGGVGGGDEPGSPAQGKRGKKSAGCGGGGGAGGGGGSSSGGGSPQSYEELQTQRVMANVRERQRTQSLNEAFAALRKIIPTLPSDKLSEIQTLKLAARYIDFLYQVLQSDELDSKMASCSYVAHERLSYAFSVWRMEGAWSMSASH [K145E] |
| with no effect | MMQDVSSSPVSPADDSLSNSEEEPDRQQPPSGKRGGRKRRSSRRSAGGGAGPGGAAGGGVGGGDEPGSPAQGKRGKKSAGCGGGGGAGGGGGSSSGGGSPQSYEELQTQRVMANVRECQRTQSLNEAFAALRKIIPTLPSDKLSKIQTLKLAARYIDFLYQVLQSDELDSKMASCSYVAHERLSYAFSVWRMEGAWSMSASH [R118C] |
| with no effect | MMQDVSSSPVSPADDSLSNSEEEPDRQQPPSGKRGGRKRRSSRRSAGGGAGPGGAAGGGVGGGDEPGSPAQGKRGKKSAGCGGGGGAGGGGGSSSGGGSPQSYEELQTQRVMANVRERQRTQSLNEAFAALRKIIPTLPSDKLRKIQTLKLAARYIDFLYQVLQSDELDSKMASCSYVAHERLSYAFSVWRMEGAWSMSASH [S144R] |

Variants of: B1
Conditions: with TCF3, P15923-1
Remark: another data set of the same source

| effect of a mutation on the interaction | Variant |
| --- | --- |
| with no effect | MMQDVSSSPVSPADDSLSNSEEEPDRQQPPSGKRGGRKRRSSRRSAGGGAGPGGAAGGGVGGGDEPGSPAQGKRGKKSAGCGGGGGAGGGGGSSSGGGSPQSYEELQTQRVMANVRERQRTQSLNEAFAALRKIIPTLPSDKLSEIQTLKLAARYIDFLYQVLQSDELDSKMASCSYVAHERLSYAFSVWRMEGAWSMSASH [K145E] |
